In patent publication US8492099B2, “Method of measuring enzymatic activity of adsorbed allergenic enzyme” (Alk-Abello A/S, priority 2005, dated 2013):

Tests used:
[1] = Adsorption of papain to aluminium hydroxide: active enzyme by active site titration with E-64; format: biochemical
Protocol: (§1) After adsorption 500 μL was taken out for further analysis and the rest of the mixture was centrifuged for 10 min at 400 rpm. The rest of the samples analysed follow the flow scheme in FIG. 12. Furthermore a control (Con) containing papain in Bis-Tris buffer in the absence of aluminium hydroxide was prepared.
The active site titration was used to estimate the amount of active enzyme in the different samples. This is in contrast to the protein concentration estimated from A280 which represents the total protein content of the sample.

[2] = Papain activity over time in the absence of aluminium hydroxide; format: physicochemical; details: 10 μg/mL papain in 50 mM Bis-Tris, 4° C.
Protocol: Papain was mixed with 50 mM Bis-Tris buffer to a final concentration of 10 μg/mL in a total volume of 500 μL. The mixture was incubated at 4° C. and samples were taken out at 0, 30 and 60 min. The samples were diluted and incubated for 10 min in buffer containing DTT and subsequently activity was measured after addition of substrate. […] Additional loss occurs until the initiation of the enzymatic assay.

[3] = Adsorption of papain to aluminium hydroxide: protein concentration by A280; format: physicochemical; details: 100 μg/mL papain, 1.14 mg/mL aluminium hydroxide, 1 h at 4° C.; ANOVA p-value=0.615
Excerpt: The aromatic amino acids tryptophan, tyrosine and phenylalanine absorb ultraviolet light. However only tryptophan and tyrosine absorb at 280 nm and tryptophan absorbs 5 times more light than tyrosine. This is due to the […] transition in the indole ring of tryptophan where phenylalanine and tyrosine contains a phenyl group. The absorbance of a protein is linearly correlated with the amount of tryptophan and tyrosine in the protein, the length of the light path and the concentration of protein. This relationship is named Lambert-Beer's law and is given by: A=ε·l·c where A is the absorbance, ε is the molar absorption coefficient for the protein (determined by the amount of tryptophan and tyrosine in the protein) l is the length of the light path and c is the protein concentration. Thus from an absorbance measurement the concentration of protein can be estimated if the molar absorptivity coefficient is known. • Apparatuses • Lambda 800 UV/VIS Spectrometer, PerkinElmer™ • 100-QS, quartz cuvette, path length 1 cm, Hellma® • Materials and Reagents • 50 mM Bis-Tris pH 6.5, Sigma • 50 mM Tris pH 7.0, Sigma • 50 mM phosphate buffer pH 7.0, Merck • 2% Helmanex solution, Hellma Experimental Procedure
The spectrophotometer was turned on 30 min prior to use for a warm up period. […] After cleaning the cuvette 20 μL of sample was transferred to the cuvette and the absorbance was measured. […]

[4] = Papain enzyme activity fluorescence assay (activity measurements and Michaelis-Menten kinetic), papain/aluminium hydroxide adsorption experiment; format: biochemical
Protocol: After measuring the enzymatic activity the maximal slope of the progress curve was estimated using the software SoftMax® PRO Life Sciences Edition, Molecular Devices, 2001. After estimating the initial velocity of the experiments they were transferred to Prism and analyzed.
as §1
Two types of enzymatic assays were performed: (i) activity measurements using a fixed substrate concentration to evaluate enzyme activity and (ii) Michaelis-Menten kinetic to estimate the kinetic parameters Vmax and KM.
All activity assays were conducted with BisTris buffer, pH 6.5, 5 mM DTT/, mM EDTA and Z-FR-AMC as substrate.

[5] = Adsorbed: papain adsorbed to aluminium hydroxide (mix 2)
[6] = Control: papain in the absence of aluminium hydroxide
[7] = activity measurements, 30 μM Z-FR-AMC

Activity of the control lower than the activity of Mix1 ([4]; papain without vs with aluminium hydroxide): 17%
B1: papain: cysteine protease Car p 1 from the plant Carica papaya, purified, Sigma; chosen as negative control (protein, UniProt P00784 134-345, looked up)
Papain: IPEYVDWRQKGAVTPVKNQGSCGSCWAFSAVVTIEGIIKIRTGNLNEYSEQELLDCDRRSYGCNGGYPWSALQLVAQYGIHYRNTYPYEGVQRYCRSREKGPYAAKTDGVRQVQPYNEGALLYSIANQPVSVVLEAAGKDFQLYRGGIFVGPCGNKVDHAVAAVGYGPNYILIKNSWGTGWGENGYIRIKRGTGNSYGVCGLYTSSFYPVKN
Active papain adsorbed to aluminium hydroxide (Mix3) [1]: approximately 7%
Active papain in solution (Sup1+Sup2) [1]: 91%
Activity at 60 min lower than at 0 and 30 min (loss of activity) [2]: 7%
Adsorption of papain to aluminium hydroxide (A280, Con vs Sup1) [3]: does not adsorb significantly
Vmax in Mix3 relative to Mix1 [4]: 7%
Vmax in solution (Sup1+Sup2) relative to Mix1 [4]: 97%
Km [4, 5]: 21 µM
Vmax [4, 5]: 44.1 ng/mL · s
kcat (Vmax/protein concentration, A280) [4, 5]: 14.58 s⁻¹
kcat (Vmax/protein concentration, active site titration) [4, 5]: 12.18 s⁻¹
Vmax [4, 6]: 373.9 ng/mL · s
kcat (Vmax/protein concentration, A280) [4, 6]: 5.13 s⁻¹
kcat (Vmax/protein concentration, active site titration) [4, 6]: 11.41 s⁻¹
Km ([4]; Control: papain in the absence of aluminium hydroxide, Z-FR-AMC, pH 6.5): 22 µM
Activity in Mix1 found in solution (Sup1+Sup2) [4, 7]: 96%
Activity of papain adsorbed to aluminium hydroxide (Mix3) [4, 7]: 8%
Difference between KM estimates of samples in presence and absence of aluminium hydroxide ([4]; one-way ANOVA p-value=0.999): no significant difference
Part of the enzyme not bound to the adjuvant ([4]; papain with aluminium hydroxide): 93%
